# B1: r-Aophytase (recombinant Aophytase; G1XN29 protein) (Orbilia oligospora ATCC 24927) (protein)
# chain: ADKFSITLPITARTSSVESDSAAVYYPSKSKYSPIFIGNDGSAETGGFHVYELYGKRSDALVKELGAYKTGRSKLVEVVYGEDRDFVVTLSMSDGMFRVFEVDGKNGVRGLKAEKLVRGDFSAMCTWKSKVGEYVYVLGKRWGYRFLVREKKGGRGVEVVQTQEFGIPIEPNSCTVSPEGKVFLAGDSGKVFSFLAVDETAAPKIVEVGELGGGDEVKGLKIYHGKKDTYLLVGLEDGIEVFDIKKLGSSLGKIQFDDEELEVGDFAVHQTSAKGYEDGSIVFAGEDGEGKFFGVSSLTPLFKALGKGKLNTKYDPRDCTDNHARPKKCANLSDCNGYGYCPKDSRDKKATCDCFPGLTGKTCNKITCPSNCTSPSHGTCTGPNICTCIPPFTGENCATLAVPARYETEESGGADGDDPAIWIHPTDKTKSRIITTVKSEVGSGLGVYDLKGKRTGGVSGGEPNNVDVLYGVEFAGRKVDLAVAACRADDTICIYEITPTGDLVTIPGGVQPLPPAVKELEKKFKVYGSCVYHSPKTGAYHIFVNSKSSLYLQFQLSATTDGKLNTTLVRHFYAGNRGQVEGCVVDDENSSLFLGEEPYGIWSYDAEPDQPAVGTLVDNTVVDGGKLHADVEGVTLVYGKTKKEGYIIVSCQGYSEYNIYQRYPPHEFVMSFSIPDNKEKGVDRVTNTDGITAVGANLGKEWPYGMVVVHDDVNEAAGGGVRADATFKIVGLGDILGNKAVKELGLLKGVDENWDPRK
# Substrate: O=P(O)(O)O[C@H]1[C@H](OP(=O)(O)O)[C@@H](OP(=O)(O)O)[C@H](OP(=O)(O)O)[C@@H](OP(=O)(O)O)[C@H]1OP(=O)(O)O
# Assay: purified protein
# Conditions: 100 mM Tris-HCl pH 7.5, 50 °C, 10 min, 0.125-4.0 mM sodium phytate, printed kcat does not agree with printed Vmax and Mw
protein,measurement,value
B1,Km,1015 µM
same,kcat,13.57 s⁻¹

# Reference: paper PMC7137328
